In patent US20210340231A1 (FAPON BIOTECH, published 2021) one finds Kd, koff and kon data, which are given here for 18 molecules.

B1: Mutation 1-26 (antibody, V domains shown)
VH: EVQLQQSGAELVKPGASVKLSCTASGFNIKDYFMHWMKQRTEQGLDWIGRIDPEDGETKYAPEFQGKATITADTSSNTAYLQLSTLTSEDTAVYYCARYYSSYLPFVYWGQGTLVTASA
VL: DVVMTQTPLSLSVSLGDQASISCRSSQSILYSNRHTYLHWYLQKPGQSPKLLIFQLSNRFSGVPDRFSGSGSGTDFTLKINRVEAEDLGVYFCSQSTHLPFTFGSGTKLEIKR
notes: built as for Mutation 1
B2: Mutation 1-35 (antibody, V domains shown)
VH: EVQLQQSGAELVKPGASVKLSCTASGFNIKDYYMHWMKQRTEQGLDWIGRIDPEDAETRYAPEFQGKATITADTSSNTAYLQLSTLTSEDTAVYYCARYYSSYLPFVYWGQGTLVTASA
VL: DVVMTQTPLSLSVSLGDQASISCRSSQSIIYSNRHTYLHWYLQKPGQSPKLLIFQLSNRFSGVPDRFSGSGSGTDFTLKINRVEAEDLGVYFCSQSTHLPYTFGSGTKLEIKR
notes: built as for Mutation 1
B3: Mutation 1-28 (antibody, V domains shown)
VH: EVQLQQSGAELVKPGASVKLSCTASGFNLKDYFMHWMKQRTEQGLDWIGRIDPEDAETKYAPEFQGKATITADTSSNTAYLQLSTLTSEDTAVYYCARYYSSYLPFVYWGQGTLVTASA
VL: DVVMTQTPLSLSVSLGDQASISCRSSQSLIYSNRHTYLHWYLQKPGQSPKLLIFQLSNRFSGVPDRFSGSGSGTDFTLKINRVEAEDLGVYFCSQSTHLPFTFGSGTKLEIKR
notes: built as for Mutation 1
B4: Mutation 1-43 (antibody, V domains shown)
VH: EVQLQQSGAELVKPGASVKLSCTASGFNLKDYYMHWMKQRTEQGLDWIGRIDPEDAETRYAPEFQGKATITADTSSNTAYLQLSTLTSEDTAVYYCARYYSSYVPFVYWGQGTLVTASA
VL: DVVMTQTPLSLSVSLGDQASISCRSSQSIIYSNRHTYLHWYLQKPGQSPKLLIFQVSNRFSGVPDRFSGSGSGTDFTLKINRVEAEDLGVYFCSQSTHIPYTFGSGTKLEIKR
notes: built as for Mutation 1
B5: Mutation 1-32 (antibody, V domains shown)
VH: EVQLQQSGAELVKPGASVKLSCTASGFNLKDYFMHWMKQRTEQGLDWIGRIDPEDGETRYAPEFQGKATITADTSSNTAYLQLSTLTSEDTAVYYCARYYSSYIPFVYWGQGTLVTASA
VL: DVVMTQTPLSLSVSLGDQASISCRSSQSILYSNRHTYLHWYLQKPGQSPKLLIFQISNRFSGVPDRFSGSGSGTDFTLKINRVEAEDLGVYFCSQSTHLPFTFGSGTKLEIKR
notes: built as for Mutation 1
B6: Mutation 1-46 (antibody, V domains shown)
VH: EVQLQQSGAELVKPGASVKLSCTASGFNLKDYFMHWMKQRTEQGLDWIGRIDPEDAETRYAPEFQGKATITADTSSNTAYLQLSTLTSEDTAVYYCARYYSSYIPFVYWGQGTLVTASA
VL: DVVMTQTPLSLSVSLGDQASISCRSSQSLIYSNRHTYLHWYLQKPGQSPKLLIFQISNRFSGVPDRFSGSGSGTDFTLKINRVEAEDLGVYFCSQSTHIPFTFGSGTKLEIKR
notes: built as for Mutation 1
B7: Mutation 1-45 (antibody, V domains shown)
VH: EVQLQQSGAELVKPGASVKLSCTASGFNIKDYYMHWMKQRTEQGLDWIGRIDPEDGETKYAPEFQGKATITADTSSNTAYLQLSTLTSEDTAVYYCARYYSSYVPFVYWGQGTLVTASA
VL: DVVMTQTPLSLSVSLGDQASISCRSSQSLIYSNRHTYLHWYLQKPGQSPKLLIFQVSNRFSGVPDRFSGSGSGTDFTLKINRVEAEDLGVYFCSQSTHIPFTFGSGTKLEIKR
notes: built as for Mutation 1
B8: Mutation 1-27 (antibody, V domains shown)
VH: EVQLQQSGAELVKPGASVKLSCTASGFNIKDYYMHWMKQRTEQGLDWIGRIDPEDAETRYAPEFQGKATITADTSSNTAYLQLSTLTSEDTAVYYCARYYSSYIPFVYWGQGTLVTASA
VL: DVVMTQTPLSLSVSLGDQASISCRSSQSLIYSNRHTYLHWYLQKPGQSPKLLIFQISNRFSGVPDRFSGSGSGTDFTLKINRVEAEDLGVYFCSQSTHIPYTFGSGTKLEIKR
notes: built as for Mutation 1
B9: Mutation 1-36 (antibody, V domains shown)
VH: EVQLQQSGAELVKPGASVKLSCTASGFNLKDYYMHWMKQRTEQGLDWIGRIDPEDGETRYAPEFQGKATITADTSSNTAYLQLSTLTSEDTAVYYCARYYSSYLPFVYWGQGTLVTASA
VL: DVVMTQTPLSLSVSLGDQASISCRSSQSIIYSNRHTYLHWYLQKPGQSPKLLIFQLSNRFSGVPDRFSGSGSGTDFTLKINRVEAEDLGVYFCSQSTHIPYTFGSGTKLEIKR
notes: built as for Mutation 1
B10: Mutation 1-41 (antibody, V domains shown)
VH: EVQLQQSGAELVKPGASVKLSCTASGFNIKDYYMHWMKQRTEQGLDWIGRIDPEDGETRYAPEFQGKATITADTSSNTAYLQLSTLTSEDTAVYYCARYYSSYIPFVYWGQGTLVTASA
VL: DVVMTQTPLSLSVSLGDQASISCRSSQSILYSNRHTYLHWYLQKPGQSPKLLIFQISNRFSGVPDRFSGSGSGTDFTLKINRVEAEDLGVYFCSQSTHIPYTFGSGTKLEIKR
notes: built as for Mutation 1
B11: Mutation 1-30 (antibody, V domains shown)
VH: EVQLQQSGAELVKPGASVKLSCTASGFNIKDYFMHWMKQRTEQGLDWIGRIDPEDAETRYAPEFQGKATITADTSSNTAYLQLSTLTSEDTAVYYCARYYSSYLPFVYWGQGTLVTASA
VL: DVVMTQTPLSLSVSLGDQASISCRSSQSIIYSNRHTYLHWYLQKPGQSPKLLIFQLSNRFSGVPDRFSGSGSGTDFTLKINRVEAEDLGVYFCSQSTHIPFTFGSGTKLEIKR
notes: built as for Mutation 1
B12: Mutation 1-42 (antibody, V domains shown)
VH: EVQLQQSGAELVKPGASVKLSCTASGFNLKDYFMHWMKQRTEQGLDWIGRIDPEDGETKYAPEFQGKATITADTSSNTAYLQLSTLTSEDTAVYYCARYYSSYLPFVYWGQGTLVTASA
VL: DVVMTQTPLSLSVSLGDQASISCRSSQSLLYSNRHTYLHWYLQKPGQSPKLLIFQLSNRFSGVPDRFSGSGSGTDFTLKINRVEAEDLGVYFCSQSTHLPYTFGSGTKLEIKR
notes: built as for Mutation 1
B13: Mutation 1-39 (antibody, V domains shown)
VH: EVQLQQSGAELVKPGASVKLSCTASGFNLKDYFMHWMKQRTEQGLDWIGRIDPEDGETRYAPEFQGKATITADTSSNTAYLQLSTLTSEDTAVYYCARYYSSYVPFVYWGQGTLVTASA
VL: DVVMTQTPLSLSVSLGDQASISCRSSQSLIYSNRHTYLHWYLQKPGQSPKLLIFQVSNRFSGVPDRFSGSGSGTDFTLKINRVEAEDLGVYFCSQSTHLPYTFGSGTKLEIKR
notes: built as for Mutation 1
B14: Mutation 1-40 (antibody, V domains shown)
VH: EVQLQQSGAELVKPGASVKLSCTASGFNLKDYYMHWMKQRTEQGLDWIGRIDPEDGETKYAPEFQGKATITADTSSNTAYLQLSTLTSEDTAVYYCARYYSSYIPFVYWGQGTLVTASA
VL: DVVMTQTPLSLSVSLGDQASISCRSSQSLLYSNRHTYLHWYLQKPGQSPKLLIFQISNRFSGVPDRFSGSGSGTDFTLKINRVEAEDLGVYFCSQSTHLPFTFGSGTKLEIKR
notes: built as for Mutation 1
B15: Mutation 1-48 (antibody, V domains shown)
VH: EVQLQQSGAELVKPGASVKLSCTASGFNIKDYFMHWMKQRTEQGLDWIGRIDPEDGETRYAPEFQGKATITADTSSNTAYLQLSTLTSEDTAVYYCARYYSSYIPFVYWGQGTLVTASA
VL: DVVMTQTPLSLSVSLGDQASISCRSSQSIIYSNRHTYLHWYLQKPGQSPKLLIFQISNRFSGVPDRFSGSGSGTDFTLKINRVEAEDLGVYFCSQSTHLPYTFGSGTKLEIKR
notes: built as for Mutation 1
B16: Mutation 1-33 (antibody, V domains shown)
VH: EVQLQQSGAELVKPGASVKLSCTASGFNLKDYYMHWMKQRTEQGLDWIGRIDPEDAETKYAPEFQGKATITADTSSNTAYLQLSTLTSEDTAVYYCARYYSSYVPFVYWGQGTLVTASA
VL: DVVMTQTPLSLSVSLGDQASISCRSSQSLIYSNRHTYLHWYLQKPGQSPKLLIFQVSNRFSGVPDRFSGSGSGTDFTLKINRVEAEDLGVYFCSQSTHIPFTFGSGTKLEIKR
notes: built as for Mutation 1
B17: Mutation 1-29 (antibody, V domains shown)
VH: EVQLQQSGAELVKPGASVKLSCTASGFNLKDYYMHWMKQRTEQGLDWIGRIDPEDGETKYAPEFQGKATITADTSSNTAYLQLSTLTSEDTAVYYCARYYSSYVPFVYWGQGTLVTASA
VL: DVVMTQTPLSLSVSLGDQASISCRSSQSLLYSNRHTYLHWYLQKPGQSPKLLIFQVSNRFSGVPDRFSGSGSGTDFTLKINRVEAEDLGVYFCSQSTHLPYTFGSGTKLEIKR
notes: built as for Mutation 1
B18: Mutation 1-47 (antibody, V domains shown)
VH: EVQLQQSGAELVKPGASVKLSCTASGFNLKDYYMHWMKQRTEQGLDWIGRIDPEDAETKYAPEFQGKATITADTSSNTAYLQLSTLTSEDTAVYYCARYYSSYVPFVYWGQGTLVTASA
VL: DVVMTQTPLSLSVSLGDQASISCRSSQSLLYSNRHTYLHWYLQKPGQSPKLLIFQVSNRFSGVPDRFSGSGSGTDFTLKINRVEAEDLGVYFCSQSTHLPFTFGSGTKLEIKR
notes: built as for Mutation 1

This experiment deals with T1, CTNI quality control recombinant protein (PK2-CTNI-1, 170120, produced by the applicant) (human, UniProt P19429 2-210, limits assumed).
T1 construct: also called cardiac troponin I
T1 sequence (P19429 2-210 limits assumed): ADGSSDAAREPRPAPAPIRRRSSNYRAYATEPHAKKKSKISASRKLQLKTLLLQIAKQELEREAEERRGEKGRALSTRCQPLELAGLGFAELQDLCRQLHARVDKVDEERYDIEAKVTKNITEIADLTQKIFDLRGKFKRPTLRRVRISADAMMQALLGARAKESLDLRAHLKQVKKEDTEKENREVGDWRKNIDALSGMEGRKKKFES
The experiment is described as follows: AMC sensor kinetics, antibody captured, cTnI analyte. The method, then:
Using the AMC sensor, the purified antibody was diluted with PBST to 10 μg/ml, and the CTNI quality control recombinant protein (PK2-CTNI-1, 170120, produced by the applicant) was serially diluted with PBST to 400 nmol/ml, 200 nmol/ml, 100 nmol/ml, 50 nmol/ml, 25 nmol/ml, 12.5 nmol/ml, 6.25 nmol/ml, and 0 nmol/ml.
Turning to B1, the Kd was 0.692 nM, the koff was 0.00023 s⁻¹ and the kon came to 333000 M⁻¹ s⁻¹.
For the molecule B2, the Kd is 0.574 nM, the koff came to 0.000276 s⁻¹ and the kon came out at 480000 M⁻¹ s⁻¹.
For B3, the Kd was found to be 0.189 nM, the off-rate (koff) was determined as 0.000101 s⁻¹ and the kon is 536000 M⁻¹ s⁻¹.
On the same counts, the results for B4 are 0.651 nM, 7.75e-05 s⁻¹ and 119000 M⁻¹ s⁻¹.
Consider B5, for which the Kd is 0.509 nM, the koff was found to be 8.4e-05 s⁻¹ and the kon was 165000 M⁻¹ s⁻¹.
In the case of B6, the Kd was determined as 0.723 nM, the koff stood at 0.00027 s⁻¹ and the kon was found to be 373000 M⁻¹ s⁻¹.
On the same counts, the results for B7 are 0.168 nM, 3.24e-05 s⁻¹ and 193000 M⁻¹ s⁻¹.
Take B8: the Kd was determined as 0.85 nM, the koff was 0.000844 s⁻¹ and the kon worked out at 993000 M⁻¹ s⁻¹.
As for B9, the equilibrium dissociation constant (Kd) was found to be 0.809 nM, the koff came out at 0.000452 s⁻¹ and the kon stood at 559000 M⁻¹ s⁻¹.
Consider B10, for which the Kd worked out at 0.723 nM, the koff amounted to 0.000393 s⁻¹ and the kon was 544000 M⁻¹ s⁻¹.
For the molecule B11, the Kd turned out to be 0.669 nM, the koff is 0.000362 s⁻¹ and the kon was determined as 541000 M⁻¹ s⁻¹.
For B12, the Kd is 0.347 nM, the koff was 0.00018 s⁻¹ and the kon came out at 520000 M⁻¹ s⁻¹.
For B13, the Kd is 0.756 nM, the koff was 0.000469 s⁻¹ and the kon amounted to 620000 M⁻¹ s⁻¹.
For the molecule B14, the Kd came to 0.818 nM, the koff stood at 0.000164 s⁻¹ and the kon is 200000 M⁻¹ s⁻¹.
On to B15, for which the Kd was determined as 0.956 nM, the koff was 0.00065 s⁻¹ and the kon is 680000 M⁻¹ s⁻¹.
For B16, the Kd turned out to be 0.986 nM, the koff amounted to 0.000881 s⁻¹ and the kon stood at 894000 M⁻¹ s⁻¹.
Consider B17, for which the Kd stood at 0.698 nM, the koff was found to be 0.000115 s⁻¹ and the kon came out at 165000 M⁻¹ s⁻¹.
For the molecule B18, the Kd is 0.81 nM, the koff is 0.000507 s⁻¹ and the kon was determined as 626000 M⁻¹ s⁻¹.
